Source: US20230235058A1 (OXFORD UNIVERSITY INNOVATION, published 2023)

Columns and labels:
[1] = target: full length human BTLA expressed on cells (human, UniProt Q7Z6A9 31-289); assay: cell-based or functional assay
[2] = target: chimeric BTLA of humanised-BTLA mice (human extracellular region, murine transmembrane and signaling … (human; mouse, UniProt Q7TSA3 184-306, limits assumed); assay: cell-based or functional assay
[3] = target: T1, monomeric soluble human BTLA extracellular domain (BTLA K31-R151) (human, UniProt Q7Z6A9 31-151); assay: SPR 37C, mAb captured, BTLA ECD analyte;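 also: Anti-BTLA mouse antibodies captured on a sensor chip via polyclonal anti-mouse IgG, isotype control antibody in reference channel, rates fitted after reference and blank subtraction to derive Kd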
T1 construct: also called hBTLA; monomeric BTLA
Description: Mouse antibody capture kit (GE Healthcare) was used to coat a Series S CMS Sensor Chip (GE Healthcare) with polyclonal anti-mouse IgG. Anti-BTLA antibody was then captured onto the biosensor surface and a negative control antibody (clone Mopc21; Biolegend) captured in the reference channel. […] Association and dissociation rates were fitted using BiaEvaluation Software (GE Healthcare) after reference and blank subtractions, and dissociation constants were calculated (FIG. 1b).
For AntiCD3/CD28 (CD4 T cell proliferation) repeat 1 in this document: test concentration or dose not given here.
For AntiCD3/CD28 (CD4 T cell proliferation) repeat 2 in this document: test concentration or dose not given here.
For AntiCD3/CD28 (CD69+ CD4 T cells) repeat 1 in this document: test concentration or dose not given here.
For T cell reporter (NFκB signaling) in this document: test concentration or dose not given here.

Chain of chimeric BTLA of humanised-BTLA mice (human extracellular region, murine transmembrane and signaling … (Q7TSA3 other isoform, or with tags, fused parts or gaps mutant limits assumed): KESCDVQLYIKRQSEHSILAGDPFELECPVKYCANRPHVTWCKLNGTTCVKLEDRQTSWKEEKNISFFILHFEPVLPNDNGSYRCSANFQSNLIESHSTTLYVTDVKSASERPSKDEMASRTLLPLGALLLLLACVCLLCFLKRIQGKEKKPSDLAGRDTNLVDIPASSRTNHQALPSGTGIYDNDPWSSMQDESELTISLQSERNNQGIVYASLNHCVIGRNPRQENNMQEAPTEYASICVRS

| Binder | T cell reporter (NFκB signaling) [1] [% inhibition] | AntiCD3/CD28 (CD4 T cell proliferation) repeat 1 [2] [% inhibition] | AntiCD3/CD28 (CD4 T cell proliferation) repeat 2 [2] [% inhibition] | AntiCD3/CD28 (CD69+ CD4 T cells) repeat 1 [2] [% inhibition] | AntiCD3/CD28 (CD69+ CD4 T cells) repeat 2 [2] [% inhibition] | MLR (CD4 T cell proliferation) repeat 1 [2] [% inhibition] | MLR (CD4 T cell proliferation) repeat 2 [2] [% inhibition] | Kd [3] [nM] | koff [3] [s⁻¹] | kon [3] [M⁻¹ s⁻¹] |
| --- | --- | --- | --- | --- | --- | --- | --- | --- | --- | --- |
| 4H4 (antibody, IgG1, V domains shown, mIgG1) VH: QVQLQQSGAELARPGASVKLSCKASGYTFTSYGISWVKQRTGQGLEWIGEIYPRSGNTYYNEKFKGKATLTADKSSSTAYMELRSLTSEDSAVYFCARRRGAGDGFDYWGQGTTLTVSS VL: DIQMTQTTSSLSASLGDRVTISCSASQGISNYLNWYQQKPDGTVKLLIYYTSSLHSGVPSRFSGSGSGTDYSLTISNLEPEDIATYYCQQYSKLPFTFGSGTKLEIK | 25 | 14 | 22 | 43 | 52 | 10 | 17 | 1710 | 0.347 | 203000 |
| 10B1 (antibody, IgG1, V domains shown) VH: QVQLQQSGAELARPGASVKLSCKASGYTFTSYGISWVKQRTGQGLEWIGEIYPRSGNTYYNEKFKGKATLTADKSSSTAYMELRSLTSEDSAVYFCARNYGSSYPFAYWGQGTLVTVSA VL: not shown | 27 | 8 | 14 | 24 | 36 | 16 | 25 | – | – | – |
| 16E1 (antibody, IgG1, V domains shown) VH: QVQLQQSGAELARPGASVKLSCKASGYTFTSYGISWVKQRTGQGLEWIGEIYPRSGNTYYNEKFKGKATLTADKSSSTAYMELRSLTSEDSAVYFCARGYGSSYGFAYWGQGTLVTVSA VL: not shown | 22 | 4 | 8 | 9 | 23 | 33 | 8 | – | – | – |
| 8B4 (antibody, IgG1, V domains shown, mIgG1) VH: QVQLQQSGAELARPGASVKLPCKASGYTFTSYGISWVKQRTGQGLEWIGEIYPRSGTTYYNEKFKGKATLTADKSSSTAYMELRSLTSEDSAVYFCARRISSGSGVDYWGQGTTLTVSS VL: DIQMTQTTSSLSASLGDRVTISCSASQGISNYLNWYQQKPDGTVKLLIYYTSSLHSGVPSRFSGSGSGTDYSLTISNLEPEDIATYYCQQYSELPWTFGGGTKLEIK | 24 | 20 | 4 | 51 | 47 | 33 | 23 | 8.17 | 0.0044 | 538000 |
| 4B1 (antibody, IgG1, V domains shown, mIgG1) VH: QVQLQQSGAELARPGASVRLSCKASGYTFTSYGLIWLKQRTGQGLEWIGEIYPRSGSTYYNEWFKGKATLTADKSSNTAFMELRSLTSEDSAVYFCARRRGTGDGFDYWGQGTILTVSS VL: DIQMTQTTSSLSASLGDRVTISCSASQGISNYLNWYQQKPDGTVKLLIYYTSSLHSGVPSRFSGSGSGTDYSLTISNLEPEDIATYYCQQYIELPFTFGSGTKLEIK | 23 | 14 | 18 | 47 | 41 | 33 | 30 | 3.21 | 0.00185 | 577000 |
| 11.5.1 D265A (antibody, V domains shown) VH: EVQLQESGPSLVKPSQTLSLTCSVTGDSITSAYWNWIRKFPGNKLEYMGYISYSGSTYFNPSLKSRISITRNTSKNQYYLQLNSVTTEDTATYYCARSHYYGYYFDYWGHGTTLTVSS VL: DIVLTQSPASLAVSLGQRATISCRASETIDSYGDSLMHWYQQKAGQPPKLLIYRASNLESGIPARFSGSGSRTDFTLTINPVEADDVATYYCQQTDEDPYTFGGGTKLEIK | -13 | -3 | -9 | -47 | -26 | -3 | 1 | – | – | – |
| 21C7 (antibody, IgG1, V domains shown, mIgG1) VH: QIQLQQSGPELVKPGASVKISCKASGYAFSSSWMNWVKKRPGKGLEWIGRIYPGDGDANYNGKFKGKATLTADKSSSTAYMQLSSLTSEDSAVYFCAGEGHYYGSGYRWYLDVWGTGTTVTVSS VL: DIQMTQSPASLSVSVGETVTITCRASENIYSNLAWYQQKQGKSPQLLVYAATNLADGVPSRFSGSGSGTQYSLKINSLQSEDFGSYYCQHFRGAPFTFGSGTKLEIK | 23 | 10 | -4 | 39 | 35 | 8 | 17 | 43.6 | 0.0406 | 930000 |
| 4D5 (antibody, IgG1, V domains shown, mIgG1) VH: QIQLVQSGPELKKPGETVKISCKASGYTFTTYGVSWVKQAPGKVLKWMGWINTYSGVPTYADDFKGRFAFSLETSASTAYLQISNLKNEDTATYFCAPVTTILHWYFDVWGTGTTVTVSS VL: DIQMTQSPSSLSASLGERVSLTCRASQEISGYLSWLQQKPDGTIKRLIYAASTLDSGVPKRFRGSRSGSDYSLTISSLESEDFADYYCLQYASYPFTFGSGTKLEIK | – | – | – | – | – | – | – | 2930 | 0.79 | 270000 |
| 15B6 (antibody, IgG1, V domains shown) VH: QVQLQQPGAELVKPGASVKLSCKASGYTFTSYWMHWVKQRPGQGLEWIGMIHPNSGSTNYNEKFKSKATLTVDKSSSTAYMQLSSLTSEDSAVYYCARKRGGLGDYWGQGTSVTVSS VL: DIVLTQSPASLAVSLGQRATISCRASKSVSTSGYSYMHWYQQKPGQPPKLLIYLASNLESGVPARFSGSGSGTDFTLNIHPVEEEDAATYYCQHSRELPYTFGGGTKLEIK | 21 | 9 | 16 | 13 | 20 | 7 | 13 | – | – | – |
| 16F10 (antibody, IgG1, V domains shown, mIgG1) VH: DVQLQESGPGLVKPSQSLSLTCSVTGYSITSGYYWNWIRQFPGNKLEWMGYISYDGSNNYNPSLKNRISITRDTSKNQFFLKLNSVTTEDTATYYCASIYGNYYAMDYWGQGTSVTVSS VL: QIVLTQSPAIMSASPGEKVTMTCSASSSVSYMHWYQQKSGTSPKRWIYDTSKLASGVPARFSGSGSGTSYSLTISSMEAEDAATYYCQQWSSNPPTFGSGTKLEIK | – | – | – | – | – | – | – | 48.8 | 0.0283 | 581000 |
| 831 (antibody, IgG1, V domains shown) VH: DVQLQESGPDLVKPSQSLSVTCTVTGYSITSGYSWHWIRQFPGNKLEWMGYIHYSGSTNYNPSLKSRISITRDTSKNQFFLQLSSVTTEDTATYYCASGPHRYDGVWFAYWGQGTLVTVSS VL: EIVLTQSPTTMAASPGEKITITCSASSSISSNYLHWYQQKPGFSPKLLIYRTSNLASGVPARFSGSGSGTSYSLTIGTMEAEDVATYYCQQGTNIPLTFGAGTKLEIK | 24 | 10 | 8 | 50 | 53 | 25 | 34 | – | – | – |
| 12F11 (antibody, IgG1, V domains shown, mIgG1) VH: EVQLQQSGPELVKPGASVKISCKASGYTFTDYYMNWVKQSHGKSLEWIGDINPNNGGTSYNQKFKGKATLTVDKSSSTAYMELRSLTSEDSAVYYCARWRQLRSDYWGQGTTLTVSS VL: DIQMTQSPASQSASLGESVTITCLASQTIGTWLAWYQQKPGKSPQLLIYAATSLADGVPSRFSGSGSGTKFSFKISSLQAEDFVSYYCQQLYSTPLTFGAGTKLELK | 30 | 5 | 9 | 30 | 40 | 28 | 23 | 722 | 0.155 | 215000 |
| 7A1 (antibody, IgG1, V domains shown, mIgG1) VH: QVQLQQSGPELVKPGASVKISCKASGYAFSSSWMNWVKQRPGKGLEWIGRIYPGDGDTNYNGKFKGKATLTADKSSSTAYMQLSSLTSEDSAVYFCARRGYGYLAYWGQGTLVTVSA VL: DIVMTQSHKFMSTSVGDRVSITCKASQDVSTAVAWYQQKPGQSPKLLIYSASYRYTGVPDRFTGSGSGTDFTFTISSVQAEDLAVYYCQQHYSTPWTFGGGTKLEIK | 20 | 14 | 17 | 28 | 38 | 23 | 29 | 40.2 | 0.0166 | 413000 |
| 15C6 (antibody, IgG1, V domains shown, mIgG1) VH: QVQLQQSGPELVKPGASVKISCKASGYAFSSSWMNWVKQRPGKGLEWIGRIYPGDGDTNYNGKFKGKATLTADKSSSTAYMQLSSLTSEDSAVYFCARRGYGYLAYWGQGTLVTVSA VL: DIVMTQSHKFMSTSVGDRVSITCKASQDVSTAVAWYQQKPGQSPKLLIYSASYRYTGVPDRFTGSGSGTDFTFTISSVQAEDLAVYYCQQHYSTPYTFGGGTKLEIK | 9 | 2 | -2 | 12 | 19 | 19 | 8 | 718 | 0.138 | 193000 |
